In patent publication US7943337B2, “Method for screening a protease” (Asahi Kasei Pharma Corporation, priority 2003, dated 2011):
One block for each molecule: values may come before it.

Experiments:
Format in all cases: biochemical
[1] = pH dependency of activity of ketoamine oxidase
Protocol: (§1) 20 μl of an enzyme solution was added to 200 μl of a reaction solution (50 mM buffer, 0.1% Triton X-100, 0.03% 4-aminoantipyrine, 0.02% TOOS, 5 U/ml peroxidase, 2 mM substrate). The whole was incubated at 37° C. for 5 minutes and then 500 μl of 0.5% SDS was added thereto followed by determining absorbance at 555 nm. Tris-HCl (pH 7.5, 8.0, 8.5), PIPES (pH 6.0, 6.5, 7.0), and Bistris-HCl (pH 5.0, 5.5, 6.0, 6.5) were used as the buffers for determination. Also, absorbance was determined using a reaction solution containing no substrates. Differences in the absorbance when FVH and FZK each were used as a substrate and concentrations of the enzyme in the enzyme solution to be used are described in Table 18.

[2] = Specificity of mutant ketoamine oxidase to various substrates; settings: Table 17; FVH = 100
Protocol: 100 μl of a preliminary sterilized expression medium (a medium containing 3% of sorbitol, 1.5% of polypeptone, 1.5% of yeast extract, and 50 μg/ml of ampicillin and adjusted to pH 7.0) was added to a 96-well microplate. Grown transformants were inoculated thereto and cultured overnight at 30° C. After the termination of the culture, each 5 μl of the culture solution was dispensed into two wells of a 96-well plate and 50 μl of a determination reagent (a 50 mM Tris-HCl buffer (pH 7.5) containing 1 mM FVH or FZK, 0.02% TOOS, 0.02% 4-aminoantipyrine and 10 U/ml peroxidase) was added to each well, and a reaction was carried out at 30° C. for 10-60 minutes. 150 μl of 0.5% SDS was added thereto to terminate the reaction and absorbance was determined at 550 nm using a Microreader (model 450, manufactured by Bio-Rad). From the constructed mutant library, a recombinant which produces ketoamine oxidase that act on FVH but has a decreased activity on FZK was selected. As a result of the screening, 923-F1 and 923-F2 were obtained as favorable mutant strains. Ketoamine oxidase genes harbored by those mutant strains were sequenced and resulted that mutations were introduced in the bases indicated by Table 15.
Note that, concentration of each substrate was set to be 1 mM and other reaction conditions were set according to the activity determination method described in <Screening of Mutant Ketoamine Oxidase having Decreased Action on FZK>.
Ketoamine oxidase derived from Neocosmospora vasinfecta 474 (FOD474) has high homology to ketoamine oxidases containing FOD923 and its amino acid sequence at an N-terminal region containing 158 of FOD923 is highly conserved as shown in FIG. 1. Using pPOSFOD474, FOD474 mutant strain 474-F1 in which 158 of FOD474 is substituted by a different amino acid (threonine) was acquired. […] 58 is a site that strongly affect on the specificity to FVH even in a case of a ketoamine oxidase derived from other microorganism species.

[3] = Substrate specificity of ketoamine oxidases; settings: for absorbance difference (A1 − Ab): pH 7.5, 37° C., 5 minutes, 555 nm; for relative activity: FVH = 100 (FOD2: FZK = 100)
Protocol: The phrase “reactivity of a ketoamine oxidase to ε-1-deoxyfructosyl-(α-benzyloxycarbonyl-L-lysine) (hereinafter also referred to as FZK) is 5% or less compared with that to 1-deoxyfructosyl-L-valyl-L-histidine (hereinafter also referred to as FVH)” refers to the fact that the rate of the reactivity is 5% or less, which is determined by the following steps: adding 20 μl of a ketoamine oxidase solution to 200 μl of a reaction solution (50 mM Tris-HCl buffer (pH 7.5), 0.1% Triton X-100, 0.03% 4-aminoantipyrine, 0.02% TOOS, 5 U/ml peroxidase, and 2 mM FZK or FVH); allowing the mixture to react at 37° C. for 5 minutes; adding 0.5 ml of 0.5% SDS; determining an absorbance at 555 nm (A1); performing the same operations using a reaction solution containing no FZK and FVH to determine an absorbance (Ab); and determining the reactivity from the difference (A1−Ab).
(§2) Determination was performed by the same method described in <Reference Example: Substrate Specificity of Ketoamine Oxidase derived from Curvularia clavata YH923 (FERM BP-10009), Ketoamine Oxidase derived from Neocosmospora vasinfecta 474, and Ketoamine Oxidase derived from Fusarium oxysporum (manufactured by Asahi Kasei Pharma)>.

[4] = pH dependency of specific activity (FZK/FVH)
Protocol: as §1

[5] = Substrate specificity of ketoamine oxidases; settings: for absorbance difference (A1 − Ab): pH 7.5, 37° C., 5 minutes, 555 nm; for relative activity: FVH = 100 (FOD2: FZK = 100); remark: listed apart in the source
Protocol: as §2

[6] = Reaction for releasing fructosyl valine from FVHL by angiotensin-converting enzyme; settings: 20 U/ml enzyme solution, 2 mM FVHL, 37° C., 1 hour; 730 nm
Protocol: Then, 200 μl of a coloring solution (50 mM Tris-HCl (pH 7.5), 0.1% Triton X-100, 5 U/ml POD, 50 U/ml FOD2, and 0.02 mM DA-64) was added to each resultant, and the mixture was allowed to react at 37° C. for 5 minutes. Thereafter, 500 μl of 0.5% SDS was added to terminate the coloring reaction, and the absorbance at 730 nm was determined. The same reaction was performed except that distilled water was used instead of the 2 mM FVHL solution. Meanwhile, 200 μl of the coloring solution was added to 40 μl of an FV solution (0, 5, 10, 20, or 50 μM), and determination was performed in the same way as above.

difference in absorbance, substrate FVH ([1]; Bistris pH 5.0): 0.023 | difference in absorbance, substrate FZK ([1]; Bistris pH 5.0): 0.012 | difference in absorbance, substrate FVH ([1]; Bistris pH 5.5): 0.084 | difference in absorbance, substrate FZK ([1]; Bistris pH 5.5): 0.022 | difference in absorbance, substrate FVH ([1]; Bistris pH 6.0): 0.187 | difference in absorbance, substrate FZK ([1]; Bistris pH 6.0): 0.042 | difference in absorbance, substrate FVH ([1]; Bistris pH 6.5): 0.273 | difference in absorbance, substrate FZK ([1]; Bistris pH 6.5): 0.063 | difference in absorbance, substrate FVH ([1]; PIPES pH 6.0): 0.265 | difference in absorbance, substrate FZK ([1]; PIPES pH 6.0): 0.066 | difference in absorbance, substrate FVH ([1]; PIPES pH 6.5): 0.303 | difference in absorbance, substrate FZK ([1]; PIPES pH 6.5): 0.093 | difference in absorbance, substrate FVH ([1]; PIPES pH 7.0): 0.243 | difference in absorbance, substrate FZK ([1]; PIPES pH 7.0): 0.132 | difference in absorbance, substrate FVH ([1]; Tris pH 7.5): 0.163 | difference in absorbance, substrate FZK ([1]; Tris pH 7.5): 0.162 | difference in absorbance, substrate FVH ([1]; Tris pH 8.0): 0.104 | difference in absorbance, substrate FZK ([1]; Tris pH 8.0): 0.200 | difference in absorbance, substrate FVH ([1]; Tris pH 8.5): 0.063 | difference in absorbance, substrate FZK ([1]; Tris pH 8.5): 0.210 | specificity, substrate FV [2]: 540 | specificity, substrate FVH [2]: 100 | specificity, substrate FZK [2]: 40
B1: FOD474: ketoamine oxidase of Neocosmospora vasinfecta 474 that reacts with FVH, expressed in Escherichia coli (protein, listed as Neocosmospora vasinfecta)
chain: MTTPRKETTVLIIGGGGTIGSSTALHLLRAGYTPSNITVLDTYPIPSAQSAGNDLNKIMGIRLRNKVDLQLSLEARDMWRNDALFRPFFHNTGRLDCESSAEGVEGLRREYQKLVEAGVGLEETHEWLDSEEAILEKAPLLQREEIEGWKAIWSEEGGWLAAAKAINAIGEELQRQGVRFGFGGAGSFKRPLFADDGTTCIGVETVDGTQYHADKVVLAAGAWSPALVDLEEQCCSKAWVYAHMQLTPEEAAVYKGCPVVYHGDVGFFFEPNENGVIKVCDEFPGFTRFKQHQPYGAPAPKPVSVPRSHAKHPTDTYPDASEESIKRAVSTFLPRFKDKPLFNRALCWCTDTADSALLICEHPRWKNFILATGDSGHSFKLLPIIGKHVVELVEGRLADDLAEAWRWRPGQGDARKSIRAAPAKDLADMPGWKHDQDSESR
modifications: CDS (1)..(1323)
notes: ketoamine oxidase of Neocosmospora vasinfecta 474 that reacts with FVH, expressed in Escherichia coli
absorbance difference (A1 − Ab) ([3]; 2 mM FVH): 0.221 | absorbance difference (A1 − Ab) ([3]; 2 mM FZK): 0.032 | relative activity ([3]; substrate FVH): 100% | relative activity ([3]; substrate FZK): 15% | specific activity (FZK/FVH) ([4]; Bistris pH 5.0): 10.4% | specific activity (FZK/FVH) ([4]; Bistris pH 5.5): 5.2% | specific activity (FZK/FVH) ([4]; Bistris pH 6.0): 4.9% | specific activity (FZK/FVH) ([4]; Bistris pH 6.5): 4.6% | specific activity (FZK/FVH) ([4]; PIPES pH 6.0): 5.0% | specific activity (FZK/FVH) ([4]; PIPES pH 6.5): 6.1% | specific activity (FZK/FVH) ([4]; PIPES pH 7.0): 10.9% | specific activity (FZK/FVH) ([4]; Tris pH 7.5): 19.9% | specific activity (FZK/FVH) ([4]; Tris pH 8.0): 38.5% | specific activity (FZK/FVH) ([4]; Tris pH 8.5): 66.7% | absorbance difference (A1 − Ab) ([5]; 2 mM FV): 0.289 | absorbance difference (A1 − Ab) ([5]; 2 mM FVHL): 0.002 | absorbance difference (A1 − Ab) ([5]; 2 mM FVHLT): 0.002 | absorbance difference (A1 − Ab) ([5]; 2 mM FVL): 0.059 | absorbance difference (A1 − Ab) ([5]; 2 mM α-glycated pentapeptide): 0.003 | absorbance difference (A1 − Ab) ([5]; 2 mM β-glycated pentapeptide): 0.002 | relative activity ([5]; substrate FV): 445% | relative activity ([5]; substrate FVHL): 0% | relative activity ([5]; substrate FVHLT): 0% | relative activity ([5]; substrate FVL): 0.91% | relative activity ([5]; substrate α-glycated pentapeptide): 0% | relative activity ([5]; substrate β-glycated pentapeptide): 0%

absorbance difference showing FV released [6]: −0.006
B2: ACEP: angiotensin-converting enzyme derived from porcine kidney (manufactured by Sigma Corporation) (protein, UniProt F1RRW5 34-1309, looked up)
Angiotensin-converting enzyme: LDSALQPGNFTADEAGAEDFAQSFNSSSEQVLFQSTAASWAHDTNITEENARRQEEAALISQEFSEVWGQKAKALYDPIWQNFTSRTLRRIIGVVRTLGSANLSPAKRQQYNSLLSNMTRIYSTAKVCFPNKTATCWSLDPELTNILATSRSYTLLLYAWEGWHNAAGIPLKPLYQDFTALSNEAYKQDGFSDTGAYWRSLYDSPTFTEDLERLYHQLEPLYLNLHAYVRRALHRQYGDRFINLRGPIPAHLLGNMWAQSWNNIYDMVVPFPGKPSLDVTSAMVQKGWNVTHMFRVAEEFFTSLGLLPMPPEFWAESMLEKPSDGREVVCHASAWDFYNRKDFRIKQCTQVTMDQLSTVHHEMGHVQYYLQYKDQHVSLRRGANPGFHEAIGDVLALSVSTPAHLHKIGLLDHVTSDWESDINYLLKMALEKIAFLPFGYLVDQWRWGVFSGRTPPLYNYDWWYLRTKYQGVCPPVVRNETHFDAGAKYHVPNVTPYIRYFVSFILQFQFHQALCKEAGHQGPLHQCDIYQSTRAGAKLRAVLQAGSSRPWQEVLKDMVGSGALDAQPLLDYFQPVTQWLEEQNQRSGDILGWPEYQWRPPMPDNYPEGIDLVSDEAEASKFVEEYDRRSQVVLNEYAEANWDYNTNITAEGSKRVLEKSTQMANHTVKYGIWARKFDVANIQNFTLKRMIKKIQDLERAALPFKELEEYNQILLDMETAYSVASVCHANSTCLQLEPDLTNLMATSRSYEELLWAWKGWRDKVGRAILPYFPKYVELTNKAARLNGYEDGGDAWRAAYEMPFLEQELEQLFQELQPLYLNLHAYVRRALHHHYGPEHINLEGPIPAHLLGNMWAQTWSNIYDLVVPFPSASKMDASEAMINQGWTPQRMFKEADNFFTSLGLLPVPPEFWNKSMLEKPTDGREVVCHASAWDFFNGKDFRIKQCTTVNMEDLVVAHHEMGHIQYFMQYKDLPVTFREGANPGFHEAIGDVLALSVSTPKHLRSINLLKSEDDGYEEDINFLMKMALDKVAFVPFSYLVDQWRWRVFDRSITKENYNQEWWSLRLKYQGLCPPVARSQGDFDPGAKFHIPSSVPYIRYFVSFIIQFQFHEALCQAAGHKGPLHKCDIYQSKEAGRRLADAMKLGLSKPWPEAMQLITGQPNVSASAMMTYFKPLLDWLVTENGRHGEKLGWPQYNWTPNSARLEGSFAGTGRVNFLGLNLEEQQARVGQWVLLFLGVTLLVATMGLTQRLFSIRHQILRRTHRGPQFGSEVELRHS
